Source: the nanobody polyreactivity screen of Harvey et al. (2022)

Experiment: yeast display, Sf9 membrane polyspecificity reagent, FACS + sequencing; frameworks hold sequencing errors
Method in brief: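 Polyreactivity labels are assigned by the sorting gate from which each nanobody was recovered. The gates were low and high (top ~1%), set on anti-HA fluorescence for expression and streptavidin fluorescence for reagent binding. Before sorting, galactose-induced (36–48 hours) yeast display cells were stained for 1 hour at 4 °C with 10% biotinylated, detergent-solubilized Sf9 membrane reagent.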

Row | Sequence | polyreactivity (PSR sort gate)
1 | QVQLVESGGGLVQAGGSLRLSCAASGRIFYGNAMGWYRQAPGKESELVASITSSGSTKYADSVKGRFTISRDNAKNTVYLQMYSLKPVDTAVYYCAASSTKRYDTYAGYDYWGQGTQVTVSS | low polyreactivity
2 | QVQLHESGGGLVQAGGSLRLSCAASGTISVTYNMAWYRQAPGKEREFVAGNSTGATTNYADSVKGRFTISRDNAKNTVYLQMNSLKPEDTAVYYCAAHIYRQDHFYYWGQGTQVTVSS | low polyreactivity
3 | QVQRVESGGGLVQAGGSLRLSCAASGRIFPSNAMGWYRQAPGKERELVAGINTRSGRTYYADSVKGRFTNSRDNAKKTDYLQLNSLKPEDTAVYYCAAARAWPLNYWYVPYDYWGQGTQVTVSS | high polyreactivity
4 | QVQLVESGGGLFQAGGSHRLSCAASGSTFRVYAMGWYRHAPGKERELVADISRSVTRTYYADSVKGRFTISRDNSKNTFYLQMNSLIPEETAVYYCAAVSYYRRWQTAYYSWGQGTQVTVSS | high polyreactivity
5 | QVQLVESGGGLVQAGGSLRLSCAASGIIFTFNARGWDRQAPGKERELVASISITGDTYYADSVKGRFTISRDNAKNTVYLQMNSLKPEDTAVYYCAAEYYFYSRHWYISYDYWGQGTQVTVSS | low polyreactivity
6 | QVQLVESGGGLVQAGGSLRLSCAASGYIFRFNAMGWYRQAPGKERELVAAISRSGGRTYYADSVKGRFTISRDNAKNTVYLQMNSLKPEDTAVYYCAAVRYKGGGNQPYGYWGQGTQVTVSS | high polyreactivity
7 | QVQIVESGGGLVQAGGSLRLSCAASGRTFQYYTMGWSRQAPGKEREFVAAIRDSGGSTYYADSVKGRFTISRDNAKNTVYLQMNSLKPEDTAVYYCAAYRPRKYDYWGQGTQVTVSS | high polyreactivity
8 | QVQLVESGGGLVQAGGSLRLSCAASGSTFYSYAMGWYRPAPGKERELVAAITTSGGSTYYADSVKGRFTISRDNAKNTVYLQMNSLKPEDTAVYYCNAYFIYEGGWYYKAQYDYWGQGTQVTVSS | low polyreactivity
9 | QVQLVESGGGLVQAGGSLRVSCAASGGIFWYYTMGWYRQAPGKERELVATISSGGRTYYADSVKGRFTISRDNAKNTVYLQMNSLKPEDTAVYYCAAVGWYHDYYWGQGTQVTVSS | high polyreactivity
10 | QVQLVESGGGLVQAGGSLRLSCAASGFIFYPNAMGWYRQAPGKERELVAGISWSGTSTYYADSVKGRFTISRDNAKNTVYLQMNSLKPEDTAVYYCNRVFYHFDVDRYDYWGQGTQVTVSS | low polyreactivity
11 | QVQLVESGGGLVQAGGSLRLSCDASGGTFYVNHMAWYRPAPWKERELVATITYSGTSTYYADSVKGRFTISRDNAKNTVYLQMNSLKPEDTAVYYCATDVLLYFEPVNLDYWGQGTQVTVSS | low polyreactivity
12 | QFQLVESGGGLVQAGGSLRLSCAASGSIFSVYTMGWYRQAPGKERELVAAISTGGGSTYYADSVKGRFTISRDNAKNTVYLQMNSLKPEDTAVYYCATDYGWAPSYWYDSCGQGTQVTVSS | low polyreactivity
13 | QVQLVESGGGLVQAGGSLRISCAASGRIFVVYVMGWYRQAPGKEREFVAAITWGGGNTYYADSVKGRFTISRDNAKNTVYLQMNSLKPEDTAVYYCNAVWYWGDMDYWGQGTQVTVSS | low polyreactivity
14 | QVQLVESGGGLVQAGGSLRLAVLPPDLPSTLNDMGWYRQAPGKERELVAAITRGGSTNYADSVKGRFTLSRDNAKNTVYLQMNSLKPEDTAVYYCAAPYAGWRDGGDYWGQGTQVTVSS | low polyreactivity
15 | QVQLVESGVGLVQAGGSLRLSCAASGFTFSYYAMGWYRKAPGKERELVAGITTGGGTNYADSVKGRFTISRDNAKNTVYLQMNSLKPEDPAVYYCNAVGAHWVSYSSPVRFDYWGQGTQVTVSS | low polyreactivity
16 | QVQLQESGGGLVQVGGSQRLSCAASGNIFYNYAMGWYRHAQGKEREFDATINHGTSINYADSVKGRFTISRDNAKNTVYLQMNSLKPEDTAVYYCAARVVRYGYKYYYWGQGTQVTLSS | low polyreactivity
17 | QVQLVESGGGLVQAGGSLRLSCAASGFIFRDYAMGWYRQAPGKERELVAAISWSSDSTYYADSVKWRFTISRDNAKNTVYLQMNSLKPEDTAVYYCAAKGLRGYWWGFDYWGQGTQVTVSS | low polyreactivity
